In the DeepSol protein solubility set:

Test: soluble on expression in E. coli; label from the status in PepcDB or PDB records

Sequence	soluble on expression in E. coli
MSLYPGQFAKTRPDHPAFIMASTGETVSYAELEARSNRLAHLLRNHGLQRLDHYSIFMENNNRYIEACAAGERSGYYYTCVNSYLTPAELAYILTNSESRALITSKAKLDVAREALKDCPNVTLCVVVDGDGESERIVGLAEATKNLPDTPIADESLGTAMLYSSGTTGRPKGILRPLPEQPPSEPLPLFHFLNMLWKYRDGMIYLSPAPLYHSAPQAAVGLTIRDGGTVIIMEHFDPEQYLALIGKHKVTHSQLVPTMFSRMLKLPEEARKTYDLSTLEVAIHAAAPCPPQVKEQMIEWWGPIIHEYYGATEGLGFTACNSAEWLAHRGTVGKVMFGDLHILDDGMKPCPKGTPGQIWFKTATPFEYFNDPKKTQEARSEDGSMSTVGDVGYVDDDGYLHLTDRATFMIISGGVNIYPQECENLLITHPKVADAAVFGVPNEDLGEEVKAVVQPMPGVAAGADLAAELIAFCAQSLSRQKVPRSIDFMDELPRLPTGKLYKRLLRDRYWGNKNSREGHHHHHH	soluble
MSLTKSVAIIGAGITGLSSAYFLKQQDPNIDVTIFEASNRPGGKIQSYRKDGYMIELGPESYLGRKTIMTELAKDIGLEQDIVTNTTGQSYIFAKNKLYPIPGGSIMGIPTDIKPFVTTKLISPLGKLRAGLDLIKKPIQMQDGDISVGAFFRARLGNEVLENLIEPLMGGIYGTDIDKLSLMSTFPNFKEKEEAFGSLIKGMKDEKNKRLKQRQLYPGAPKGQFKQFKHGLSSFIEALEQDVKNKGVTIRYNTSVDDIITSQKQYKIVYSNQQEDVFDGVLVTTPHQVFLNWFGQDPAFDYFKTMDSTTVATVVLAFDEKDIENTYDGTGFVIARTSDTDITACTWTSKKWPFTTPEGKVLIRAYVGKPGDTVVDDHTDNELVSIVRRDLSQMMTFKGDPEFTIVNRLPKSMPQYHVGHIQQIRQIQAHIKQTYPRLRVTGASFEAVGLPDCITQGKVAAEEVIAELEGHHHHHH	soluble
MANDVMNRNYDFFDPMNFFNEVGNLGRDMFSGDSSMKTDVVEHDKDYVVTAELPGFKKDDIHVDYHDETLRISGKTEVNQSAKDDDGRILRQERRSQNVARSFYLPGIDLKNVKATYADGILTLTLPKQTEVDGSHEISIDLEHHHHHH	soluble
MADNYVIWFENLRMTDVERVGGKNASLGEMISQLTEKGVRVPGGFATTAEAYRAFLAHNGLSERISAALAKLDVEDVAELARVGKEIRQWILDTPFPEQLDAEIEAAWNKMVADAGGADISVAVRSSATAEDLPDASFAGQQETFLNINGLDNVKEAMHHVFASLYNDRAISYRVHKGFEHDIVALSAGVQRMVRSDSGASGVMFTLDTESGYDQVVFVTSSYGLGENVVQGAVNPDEFYVFKPTLKAGKPAILRKTMGSKHIKMIFTDKAEAGKSVTNVDVPEEDRNRFSITDEEITELAHYALTIEKHYGRPMDIEWGRDGLDGKLYILQARPETVKSQEEGNRNLRRFAINGDKTVLCEGRAIGQKVGQGKVRLIKDASEMDSVEAGDVLVTDMTDPDWEPV	not soluble
DSTFTNISLADDIDHSSRILYPRPKSLLPKMMNADMDVDAENQVELEEKTRLINQVLELQHTLEDLSARVDAVKEENLKLKSENQVLGQYIENLMSASSVFQTTDTKSKRK	not soluble
MIRKHSATLHGHRTSISLEDAFWDELKIIAERRKVSFAALLAEIDDSRPADSNLSSSLRVYVLNWLKTR	not soluble
WCYEIQTEDPRSSCLGPEKWPGACKENQQSPINIVTARTKVNPRLTPFILVGYDQKQQWPIKNNQHTVEMTLGGGACIIGGDLPARYEAVQLHLHWSNGNDNGSEHSIDGRHFAMEMHIVHKKLTSSKEDSKDKFAVLAFMIEVGDKVNKGFQPLVEALPSISKPHSTSTVRESSLQDMLPPSTKMYTYFRYNGSLTTPNCDETVIWTVYKQPIKIHKNQFLEFSKNLYYDEDQKLNMKDNVRPLQPLGKRQVFKSHA	soluble
MGPMPKLADRKLCADQECSHPISMAVALQDYMAPDCRFLTIHRGQVVYVFSKLKGRGRLFWGGSVQGDYYGDLAARLGYFPSSIVREDQTLKPGKVDVKTDKWDFYCQ	soluble
MSLEQGIAARKAEAESNASTKGESPDYPGQQVIWRLIQEAGESLRDELRTLAFTLHDHPEEAFEEVFATEEITKLLQNHGFEVQSGVYGVKTALETSFETPGYDPAQHPSIAILAEYDALPEIGHACGHNIIAAAGVGAFLAVTNMIKTAEVKGVDHLDFEGRIVLLGTPAEEGHSGKEYMIRNGAFDGIDASIMMHPFGFDLAEHVWVGRRTMTATFHGVSAHASSQPFMGKNALDAASLAYQGFGVLRQQMPPSDRLHAIITEGGNRPSIIPDTATMSLYVRSLLPEALKDISKRVDDVLDGAALMAGVGVEKQWDVHPASLPVRNNHVLARRWAKTQNLRGRTALSEGILPDTLAASTDFGNVSHLVPGIHPMVKISPENVALHTKEFAAYARTEEAIDAAVDAAIGLAQVAVDALADPQMLIDATLEFTNSGDVLKVGDYLAEGHHHHHH	soluble
MMSTLALVSLAIFGIAVVCAAPKPATVPVANEEDYLAALYGFEAPGSQFKGAPLQSKRHISPSYDVEIDAGNMRNLLDIGKRSAPMASDYGNQFQMYNRLIDAGKKKRSPAISPAYQFENAFGLSEALERAGRR	not soluble
MEMYFKRMKDEWTGLVEQADPPIRAKAAEIAVAHAHYLSIEFYRIVRIDPHAEEFLSNEQVERQLKSAMERWIINVLSAQVDDVERLIQIQHTVAEVHARIGIPVEIVEMGFRVLKKILYPVIFSSDYSAAEKLQVYHFSINSIDIAMEVMTRAFTFSDSSASKELEHHHHHH	soluble
MGSDKIHHHHHHMKIQNTEWGYIEWKHTYDENNPKQAMNIYIAVTMPGKKHFNHVHYGQEQMIYILEGEGLYIINGVWKPFYQGMIFYIESGSTHETINTGDREIKELIVSNNVDDVGESEIIDINPNNYLKKTLINYSESTLNLYAAVESIRGQFIDPFKIPLIIYDDSWNIVLKNPYFPLFCFEKCNPMKFPQNCDCMNQKSSNQFVCEYGITIYNIPILYKSNSIGVIRGGYVLLSDLNLDTEHNNLYDIPEGAARSIKRLLKQISKNIINFCSFNDIRKDLQEKEKTIARTYHYGEQLEMNLKVAQDMVTNLRINHHFLFNTLNSMASIALDDGSYDLYSAIIDLSRMFRYTMRSDLRFVELESEILYIKNYLNLQKLRYGDALKVKYLIPEKLYNLSVPFNFIQPIVENAFTHGFRDIDTEKRIEIIARLDSQYAIIEIHNNGTILDGNNIDKIKAGIRSNNGHGLSLIYTKFTSAYGNNFDMDIKSSDNEGTYIMIKIPIENYKEYV	not soluble
MAHHHHHHMMRSPFERLYHLNNRRDRDERRNKVFQLSLLERIRDRIVSGSLKEDIARKEERLRKQEEMLTSPNGVFVRLYQNSSPRRSSNAAAEGSDCKSVGEGNRDGRASVNTTGVSSQRASTARSRMSAAESQELCNRLYETAAIVKQKKEAMRKQSVEERQRQQAEELLIARLAGQIQLERSRTRASSKRRPKTPAQLEDEARAALEKLRKEDPEGYEKKVLRGRLLSPAERVMQAERLWKHGYISKAKLEAQKKVLELKKCTFQPTINEFSGSAGVAGSGETRGKGGGGTNDDKHLSAGTDRAQRHRKANRFEELYRKGIQAKVRGETLREERDREARLRILRSRMVSDHHFRRRVELDPLLAERFMKSLVV	not soluble
GSHMAEDEPFSGAKKLRHLLENTDELIVCPGVYDGLSARTAMELGFKSLYMTGAGTTASRLGQPDLAIAQLHDMRDNADMIANLDPFGPPLIADMDTGYGGPIMVARTVEHYIRSGVAGAHLEDQILTKRCGHLSGKKVVSRDEYLVRIRAAVATKRRLRSDFVLIARTDALQSLGYEECIERLRAARDEGADVGLLEGFRSKEQAAAAVAALAPWPLLLNSVENGHSPLITVEEAKAMGFRIMIFSFATLAPAYAAIRETLVRLRDHGVVGTPDGITPVRLFEVCGLQDAMEVDNGAGGKAFSEGV	soluble
MGSDKIHHHHHHMAPDTSMSSRDALPPLACLRAFEAAARHASFTQAGSELHLTQSAVSRQIKRLEDDLGRPLFERHYEGLRLTPAGERYFGVVQRLLRDLRDETARLRRRGDDRQLTLASSPTIASIWLARQLPDFQRAHPHIEIRILTVEDPHRLDLAEFDLGIYYHVPHEVDPPGLDAEAIFSHEEVAAVCSPAYLARHGDIRDADDLLARHTLMVVEDHYHDWLTWEGWYQAQNLAWRTPEHSLRANSFQLLMNAILAGQGVTLGWTRLLAADLAQHNLVQALPHTLPSRGRLSLLTPQHRHLTEPMRAFRAWVLGPA	not soluble
